In patent US20150376296A1 (Memorial Sloan Kettering, published 2015):

Biological target: human prostate-specific membrane antigen (PSMA) (human, UniProt Q04609 1-750)
Assay: cell-based or functional assay

Sequence of human prostate-specific membrane antigen (PSMA) (Q04609 whole entry): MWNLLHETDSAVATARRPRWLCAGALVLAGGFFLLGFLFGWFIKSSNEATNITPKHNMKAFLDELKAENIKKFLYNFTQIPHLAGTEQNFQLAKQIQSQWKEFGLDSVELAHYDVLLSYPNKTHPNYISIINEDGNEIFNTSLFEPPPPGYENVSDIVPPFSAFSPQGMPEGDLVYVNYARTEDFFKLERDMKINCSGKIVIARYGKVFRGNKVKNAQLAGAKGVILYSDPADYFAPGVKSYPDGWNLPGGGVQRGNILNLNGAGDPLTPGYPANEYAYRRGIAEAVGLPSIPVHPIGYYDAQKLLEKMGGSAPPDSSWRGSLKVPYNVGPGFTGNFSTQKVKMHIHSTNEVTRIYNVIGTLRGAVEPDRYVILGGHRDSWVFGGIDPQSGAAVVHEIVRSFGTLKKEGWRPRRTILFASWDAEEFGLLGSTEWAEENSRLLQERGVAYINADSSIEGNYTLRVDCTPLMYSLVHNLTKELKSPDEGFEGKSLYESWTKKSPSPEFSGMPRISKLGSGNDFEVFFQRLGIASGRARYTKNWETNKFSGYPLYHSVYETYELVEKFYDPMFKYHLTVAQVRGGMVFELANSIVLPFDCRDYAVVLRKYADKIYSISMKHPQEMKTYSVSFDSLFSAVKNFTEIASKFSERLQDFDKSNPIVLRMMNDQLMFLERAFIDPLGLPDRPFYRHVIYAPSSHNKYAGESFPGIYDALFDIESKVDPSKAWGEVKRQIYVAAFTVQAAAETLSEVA

Binder | cytokine levels of 19-28z/iCAR T cells on CD19+PSMA+ off-target versus CD19+ target AAPCs, inhibition [%]
LAG-3 iCAR-P (PSMA-specific inhibitory chimeric antigen receptor with LAG-3 intracellular domain) (receptor) EVQLQQSGPELVKPGTSVRISCKTSGYTFTEYTIHWVKQSHGKSLEWIGNINPNNGGTTYNQKFEDKATLTVDKSSSTAYMELRSLTSEDSAVYYCAAGWNFDYWGQGTTVTVSSGGGGSGGGGSGGGGSDIVMTQSHKFMSTSVGDRVSIICKASQDVGTAVDWYQQKPGQSPKLLIYWASTRHTGVPDRFTGSGSGTDFTLTITNVQSEDLADYFCQQYNSYPLTFGAGTMLDLKRAAALGAAVYFTELSSPGAQRSGRAPGALPAGHLLLFLILGVLSLLLLVTGAFGFHLWRRQWRPRRFSALEQGIHPPQAQSKIEELEQEPEPEPEPEPEPEPEPEPEQL | 30
BTLA iCAR-P (PSMA-specific inhibitory chimeric antigen receptor with BTLA intracellular domain) (receptor) EVQLQQSGPELVKPGTSVRISCKTSGYTFTEYTIHWVKQSHGKSLEWIGNINPNNGGTTYNQKFEDKATLTVDKSSSTAYMELRSLTSEDSAVYYCAAGWNFDYWGQGTTVTVSSGGGGSGGGGSGGGGSDIVMTQSHKFMSTSVGDRVSIICKASQDVGTAVDWYQQKPGQSPKLLIYWASTRHTGVPDRFTGSGSGTDFTLTITNVQSEDLADYFCQQYNSYPLTFGAGTMLDLKRAAADVKSASERPSKDEMASRPWLLYSLLPLGGLPLLITTCFCLFCCLRRHQGKQNELSDTAGREINLVDAHLKSEQTEASTRQNSQVLLSETGIYDNDPDLCFRMQEGSEVYSNPCLEENKPGIVYASLNHSVIGPNSRLARNVKEAPTEYASICVRS | 30
2B4 iCAR-P (PSMA-specific inhibitory chimeric antigen receptor with 2B4 intracellular domain) (receptor) EVQLQQSGPELVKPGTSVRISCKTSGYTFTEYTIHWVKQSHGKSLEWIGNINPNNGGTTYNQKFEDKATLTVDKSSSTAYMELRSLTSEDSAVYYCAAGWNFDYWGQGTTVTVSSGGGGSGGGGSGGGGSDIVMTQSHKFMSTSVGDRVSIICKASQDVGTAVDWYQQKPGQSPKLLIYWASTRHTGVPDRFTGSGSGTDFTLTITNVQSEDLADYFCQQYNSYPLTFGAGTMLDLKRAAAQDCQNAHQEFRFWPFLVIIVILSALFLGTLACFCVWRRKRKEKQSETSPKEFLTIYEDVKDLKTRRNHEQEQTFPGGGSTIYSMIQSQSSAPTSQEPAYTLYSLIQPSRKSGSRKRNHSPSFNSTIYEVIGKSQPKAQNPARLSRKELENFDVYS | 30
